Experimental data as given in patent US20180328929A1 (BIOMERIEUX, published 2018).
Positions count from the first letter of the chain named.

B1: ORF2-MUT (ORF2 amino acids 394-660 with cysteines 627, 630 and 638 changed to serine, N-terminal 8-his tag) (other)
chain: HHHHHHHHQLFYSRPVVSANGEPTVKLYTSVENAQQDKGIAIPHDIDLGESRVVIQDYDNQHEQDRPTPSPAPSRPFSVLRANDVLWLSLTAAEYDQSTYGSSTGPVYVSDSVTLVNVATGAQAVARSLDWTKVTLDGRPLSTTQQYSKTFFVLPLRGKLSFWEAGTTKAGYPYNYNTTASDQLLVENAAGHRVAISTYTTSLGAGPVSISAVAVLAPHSALALLEDTMDYPARAHTFDDFSPESRPLGLQGSAFQSTVAELQRLKMKVGKTREL
notes: Made in E. coli; also called p-ORF2-MUT; construction according to the invention
B2: ORF2-REF (ORF2 amino acids 394-660 of hepatitis E virus isolate Human/China/HeBei/1987, N-terminal 8-his tag) (other)
chain: B1 chain with S242C, S245C, S253C
notes: Made in E. coli, dissolved from inclusion bodies in urea, Ni-NTA purified, dialyzed; Heterogeneous: covalent dimers (major form), non-covalent dimers, high-molecular-weight forms and aggregates; also called p-ORF2.1 polypeptide

Key:
[1] = biological target: the molecule itself; test: SDS-PAGE, non-heated (self-association)
[2] = biological target: the molecule itself; test: SDS-PAGE (self-association)

Protein	binding result [1]	binding result [2]
B1	binds	–
B2	–	binds
